Reference: publication PMC9783754 (International Journal of Molecular Sciences, 2022)
Positions count from the first letter of the chain named.

B1: Recombinant human S100B (natural protein, UniProt P04271 1-92, looked up)
chain: MSELEKAMVALIDVFHQYSGREGDKHKLKKSELKELINNELSHFLEEIKEQEVVDKVMETLDNDGDGECDFQEFMAFVAMVTTACHEFFEHE
notes: S100B, human; Ca2+-loaded in the assay; source: E. coli, purified as previously described
B2: Recombinant human S100A3 (natural protein, UniProt P33764 1-101, looked up)
chain: MARPLEQAVAAIVCTFQEYAGRCGDKYKLCQAELKELLQKELATWTPTEFRECDYNKFMSVLDTNKDCEVDFVEYVRSLACLCLYCHEYFKDCPSEPPCSQ
notes: S100A3, human; Ca2+-loaded in the assay; source: E. coli, purified as previously described
B3: Recombinant human S100A2 (natural protein)
chain: not shown
notes: S100A2, human; Ca2+-loaded in the assay; source: E. coli, purified as previously described
B4: Recombinant human S100A14 (natural protein, UniProt Q9HCY8 1-104, looked up)
chain: MGQCRSANAEDAQEFSDVERAIETLIKNFHQYSVEGGKETLTPSELRDLVTQQLPHLMPSNCGLEEKIANLGSCNDSKLEFRSFWELIGEAAKSVKLERPVRGH
notes: S100A14, human; Ca2+-loaded in the assay; source: E. coli, purified as previously described
B5: Recombinant human S100A9 (natural protein, UniProt P06702 1-114, looked up)
chain: MTCKMSQLERNIETIINTFHQYSVKLGHPDTLNQGEFKELVRKDLQNFLKKENKNEKVIEHIMEDLDTNADKQLSFEEFIMLMARLTWASHEKMHEGDEGPGHHHKPGLGEGTP
notes: S100A9, human; Ca2+-loaded in the assay; source: E. coli, purified as previously described
B6: Recombinant human S100A8 (natural protein, UniProt P05109 1-93, looked up)
chain: MLTELEKALNSIIDVYHKYSLIKGNFHAVYRDDLKKLLETECPQYIRKKGADVWFKELDINTDGAVNFQEFLILVIKMGVAAHKKSHEESHKE
notes: S100A8, human; Ca2+-loaded in the assay; source: E. coli, purified as previously described
B7: Recombinant human S100A16 (natural protein, UniProt Q96FQ6 1-103, looked up)
chain: MSDCYTELEKAVIVLVENFYKYVSKYSLVKNKISKSSFREMLQKELNHMLSDTGNRKAADKLIQNLDANHDGRISFDEYWTLIGGITGPIAKLIHEQEQQSSS
notes: S100A16, human; Ca2+-loaded in the assay; source: E. coli, purified as previously described
B8: Recombinant human S100A7 (natural protein, UniProt P31151 1-101, looked up)
chain: MSNTQAERSIIGMIDMFHKYTRRDDKIEKPSLLTMMKENFPNFLSACDKKGTNYLADVFEKKDKNEDKKIDFSEFLSLLGDIATDYHKQSHGAAPCSGGSQ
notes: S100A7, human; Ca2+-loaded in the assay; source: E. coli, purified as previously described
B9: Recombinant human S100A15 (natural protein, UniProt Q86SG5 1-101, looked up)
chain: B8 chain with R22G, D25G, T52I, N53H, D57T, T84A
notes: Ca2+-loaded in the assay; source: E. coli, purified as previously described
B10: Recombinant human S100P (natural protein, UniProt P25815 1-95, looked up)
chain: MTELETAMGMIIDVFSRYSGSEGSTQTLTKGELKVLMEKELPGFLQSGKDKDAVDKLLKDLDANGDAQVDFSEFIVFVAAITSACHKYFEKAGLK
notes: S100P, human; Ca2+-loaded in the assay; source: E. coli, purified as previously described
B11: Recombinant human S100A4 (natural protein)
chain: not shown
notes: S100A4, human; Ca2+-loaded in the assay; source: E. coli, purified as previously described
B12: Recombinant human S100A5 (natural protein, UniProt P33763 1-92, looked up)
chain: METPLEKALTTMVTTFHKYSGREGSKLTLSRKELKELIKKELCLGEMKESSIDDLMKSLDKNSDQEIDFKEYSVFLTMLCMAYNDFFLEDNK
notes: S100A5, human; Ca2+-loaded in the assay; source: E. coli, purified as previously described
B13: Recombinant human S100A12 (natural protein, UniProt P80511 1-92, looked up)
chain: MTKLEEHLEGIVNIFHQYSVRKGHFDTLSKGELKQLLTKELANTIKNIKDKAVIDEIFQGLDANQDEQVDFQEFISLVAIALKAAHYHTHKE
notes: S100A12, human, UniProt ID P80511 (printed in the methods of the database search); monomer and dimer by cross-linking at 4 µM; source: E. coli, purified as previously described
B14: Recombinant human S100A11 (natural protein, UniProt P31949 1-105, looked up)
chain: MAKISSPTETERCIESLIAVFQKYAGKDGYNYTLSKTEFLSFMNTELAAFTKNQKDPGVLDRMMKKLDTNSDGQLDFSEFLNLIGGLAMACHDSFLKAVPSQKRT
notes: S100A11, human, UniProt ID P31949 (printed in the methods of the database search); mainly dimeric by cross-linking at 4 µM; source: E. coli, purified as previously described
B15: Recombinant human S100A13 (natural protein, UniProt Q99584 1-98, looked up)
chain: MAAEPLTELEESIETVVTTFFTFARQEGRKDSLSVNEFKELVTQQLPHLLKDVGSLDEKMKSLDVNQDSELKFNEYWRLIGELAKEIRKKKDLKIRKK
notes: S100A13, human, UniProt ID Q99584 (printed in the methods of the database search); source: E. coli, purified as previously described

These binders were tested against T1, Recombinant human sTNF (soluble form of tumor necrosis factor) (human, UniProt P01375 77-233) (assay: SPR; ligand (50 μg/mL sTNF or TNF-β) immobilised on a ProteOn GLH chip by amine coupling; chip flushed with running buffer for two days and several times with 10 mM glycine pH 3.3 to dissociate sTNF multimers (monomeric sTNF); Ca2+-loaded S100 protein as analyte, 10 nM–2 µM; 25 °C; 10 mM HEPES, 150 mM NaCl, 1 mM CaCl2, 0.05% TWEEN 20, pH 7.4; heterogeneous ligand model). Settings: both partners purified.
T1 construct: additional N-terminal methionine, stated in words; tumor necrosis factor, human, soluble form (157 residues), residues 77-233 of UniProt entry P01375; Monomeric on the SPR chip after long flushing and glycine pH 3.3 washes; multimeric in solution in the fluorimetric titrations and cross-linking; also called TNF-α; TNF ligand superfamily member 2; source: bought: Prospec-Tany Technogene (catalog # …)
T1 sequence (P01375 other isoform, or with tags, fused parts or gaps): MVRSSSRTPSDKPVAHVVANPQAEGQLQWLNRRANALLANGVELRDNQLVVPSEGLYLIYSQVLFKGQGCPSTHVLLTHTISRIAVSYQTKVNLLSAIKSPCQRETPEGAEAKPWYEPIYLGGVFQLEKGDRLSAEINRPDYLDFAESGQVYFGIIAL
In the case of B1, the Kd is reported as > 100000 nM. In the case of B2, the Kd is reported as > 100000 nM. B3 was tested, and the Kd was > 100000 nM. B4 was tested, and the Kd was > 100000 nM. With B5 the Kd was > 100000 nM. For B6, the Kd was > 100000 nM. For B7, the Kd was > 100000 nM. B8 was tested, and the Kd was > 100000 nM. For B9, the Kd was > 100000 nM. In the case of B10, the Kd is reported as > 100000 nM. In the case of B11, the Kd is reported as > 100000 nM. For B12, the Kd was > 100000 nM.

Biological target: T1, Recombinant human sTNF (soluble form of …)
Test: as above
Settings: both partners purified
Remark: another data set of the same source
B13 was tested, and the “Kd1 (KD, ligand population 1)” value was 2.3 nM, the “Kd2 (KD, ligand population 2)” value was 8.4 nM and the “kd1 (koff, ligand population 1)” value was 0.0018 s⁻¹. The “kd2 (koff, ligand population 2)” value was 0.0023 s⁻¹. B14 was tested, and the “Kd1 (KD, ligand population 1)” value was 28 nM, the “Kd2 (KD, ligand population 2)” value was 695 nM and the “kd1 (koff, ligand population 1)” value was 0.00018 s⁻¹. The “kd2 (koff, ligand population 2)” value was 0.0084 s⁻¹. In the case of B15, the “Kd1 (KD, ligand population 1)” value is reported as 2.4 nM, the “Kd2 (KD, ligand population 2)” value is reported as 4.3 nM and the “kd1 (koff, ligand population 1)” value is reported as 0.0009 s⁻¹. The “kd2 (koff, ligand population 2)” value was 0.0073 s⁻¹.

The binders below were run against T1, Recombinant human sTNF (soluble form of …) (assay: other fluorescence titration; 280 nM (S100A11) or 0.5 µM (S100A12) multimeric sTNF titrated by Ca2+-bound S100 protein; Trp fluorescence of sTNF, excitation 295/298 nm, intensity at 325 nm; 25 °C; 10 mM HEPES-NaOH, 150 mM NaCl, 1 mM CaCl2, pH 7.4; single site binding model; apparent). Settings: both partners purified.
For B13, the Kd was 348 ± 50 nM and the “stoichiometry N” value was 1. In the case of B14, the Kd is reported as 104 ± 23 nM and the “stoichiometry N” value is reported as 1.

Biological target: the molecule itself
Test: cross-linking; 4 µM sTNF and/or S100 protein (sTNF to S100 1:0, 0:1, 1:0.5, 1:1, 1:2), 20 mM EDAC and 5 mM sulfo-NHS, 25 °C, 1.5 h; 10 mM HEPES, 150 mM NaCl, pH 7.4 with 1 mM CaCl2; SDS-PAGE with silver staining
Settings: not given
For B13, the “stoichiometry N” value was 2. For B14, the “stoichiometry N” value was 2.
